Substitutions are numbered along the chain they refer to.
Legend:
[1] = molecular target: T1, purified EBV gp350/220 (recombinant EBV gp350 ectodomain) (Epstein-Barr virus, UniProt P03200); experiment: Indirect ELISA on recombinant EBV gp350 ectodomain; type: binding; details: purified antibodies 10 μg/ml
T1 construct: purified EBV gp350 ectodomain protein (AA 4-863); purchased Immune Technology Corporation
Method: Briefly, immunoplates (Costar 3590; Corning Incorporated) were coated with 50 μl of 0.5 μg/ml recombinant EBV gp350 ectodomain (Immune Technology Corporation) diluted in 1× phosphate buffered saline (PBS, pH 7.4) and incubated overnight at 4° C. After washing three times with 1×PBS containing 0.05% (v/v) Tween 20 (washing buffer), plates were blocked with 100 μl washing buffer containing 2% (w/v) bovine serum albumin (BSA) (blocking buffer) then incubated for 1 h at room temperature and washed as above. 100 μl of hybridoma supernatant or 50 μl of 10 μg/ml purified mAbs was added to each well (in triplicate) and incubated for 2 h at room temperature. […] The plates were washed as described above, followed by incubation with 50 μl of goat anti-mouse IgG HRP-conjugated secondary antibody (1:2,000 diluted in 1×PBS) at room temperature for 1 h. The plates were washed again and 100 μl of chromogenic substrate 2,2′-azino-bis (3-ethylbenzothiazoline-6-sulphonic acid) (ABTS, Life Science Technologies) was added. The reaction was stopped using 100 μl of ABTS peroxidase stop solution containing 5% sodium dodecyl sulfate (SDS) in water. The absorbance was read at an optical density of 405 nm using an ELISA reader (Molecular Devices). All experiments were performed in triplicate and confirmed in three independent experiments.
ELISA binding of anti-gp350 and anti-gH/gL to soluble gp350 and gH/gL proteins was performed. Soluble EBV gp350 and gH/gL proteins were used as the target antigen at 0.5 μg/ml. 1× phosphate buffered saline (PBS) was used as negative (not shown) control. Bound antibodies were detected using HRP-conjugated anti-mouse or anti-human IgG (1:2,000).

[2] = molecular target: T2, gp350 protein on gp350 expressing CHO cells (Epstein-Barr virus, UniProt P03200); experiment: Flow cytometry of CHO cells stably expressing EBV gp350; type: binding; details: concluded from flow cytometry and immunoblot
T2 construct: stably co-transfected with full-length pCAGGS-gp350/220 and pCI-puro vector; expressed in transfected cells; host or cells: CHO cells
Method: To assess the ability of purified anti-gp350 mAb to detect surface expression of EBV gp350 protein by flow cytometry, CHO cells that stably express EBV gp350 were harvested and stained with purified anti-gp350 (10 μg/ml), followed by AF488 goat anti-mouse IgG secondary antibody. Flow cytometric analysis was performed on a C-6 FC (BD Biosciences) and data was analyzed using FlowJo Cytometry Analysis software (FlowJo, LLC) as described (47). All the experiments were independently repeated three times.
These novel antibodies were analyzed by flow cytometric analysis for surface expression of gp350 protein on 10^6 CHO cells transfected with 1 μg of pCAGGS-gp350. gp350 expressing cells were resuspended in PBS, stained with anti-gp350 mAb, which detects the gp350 ED, followed by secondary Ab goat anti-mouse conjugated to AF488. Additionally, western blot analysis was conducted on untransfected and pCAGGS-gp350 transfected CHO lysate. Anti-gp350 mAb 72A1 was used as a positive control (1:100) and anti-gp350 hybridoma clone supernatants were used at 1:50, and anti-mouse secondary antibody was used at 1:2000.
Flow cytometric analysis of gp350 and gH/gL specificity was performed. CHO wild type cells and gp350 or gH/gL-expressing CHO cells were stained with primary antibodies, followed by secondary goat anti-mouse or anti-human conjugated to AF488. Unstained cells and cells stained with secondary goat anti-mouse or anti-human conjugated to AF488 alone, were used as negative controls.

[3] = system: EBV-eGFP infection of Raji cells; experiment: EBV neutralization assay in Raji cells; type: cell-based, Epstein-Barr virus; details: for neutralization of EBV in Raji cells (in words): spin-column purified mAbs, 12.5, 25, 50 and 100 μg/ml; for blocking of EBV infection of Raji cells (in words): protein G and size-exclusion chromatography-purified mAbs, 12.5-100 μg/ml
Method: EBV neutralization assay was performed in Raji cells as previously described (47). Briefly, purified individual anti-gp350 mAbs were incubated with purified AGS-EBV-eGFP (titer calculated to infect at least 8% of HEK293 cells seeded in 100 μl of serum-free DMEM) for 2 hours at 37° C. To represent EBV infection of B cells, the pre-incubated anti-gp350 mAbs/AGS-EBV-eGFP were used to infect 5×10^5 Raji cells seeded in a 96-well plate for 2 hours at 37° C. Neutralizing 72A1 and non-neutralizing 2L10 anti-gp350 mAbs served as positive and negative controls, respectively. Infected cells were washed three times with PBS to remove any unbound viruses and antibodies. Washed, infected cells were incubated in 96-well plates at 37° C. for 48 hours post-infection and the number of eGFP+ (infected) cells was determined using flow cytometry. All dilutions were performed in quintuplicate and the assays were repeated three times. Antibody EBV neutralization activity was calculated as: % neutralization=(EBValone−EBVmAb)/(EBValone)×100.
However, this antibody was recently reported to be a mixture of both functional and non-functional antibodies (50). […] The percentage of eGFP+ cells (percent infection) was determined using flow cytometry as described (47). The nAbs 72A1 and E1D1 were used as positive controls, whereas the anti-gp350 non-neutralizing mAb 2L10 and KSHV gH/gL mAb 54A1 were used as negative controls. Because HB4, HB13, HB15, HB16, HB19, HB21, and HB23 were confirmed to be polyclonal based on isotyping and/or sequence data, they were eliminated from further consideration in the neutralization assay. HB18 was not used in neutralization experiments because it was identical to HB8.
The purified eGFP-tagged-EBV was titered in Raji cells to determine percent EBV infection using a range of volumes (50-250 μl) (FIG. 5A). Then initial neutralization of EBV was conducted in Raji cells using purified mAbs at various concentrations (12.5, 25, 50, and 100 μg/ml).
EBV-eGFP+ cells were enumerated using flow cytometry.

[4] = molecular target: T3, EBV gp350 stably expressed on CHO cells (Epstein-Barr virus, UniProt P03200); experiment: Epitope mapping by competitive cell binding assay with biotinylated mAbs; details: for % inhibition of biotinylated nAbs (biotinylated m72A1): biotinylated m72A1 1 μg/ml
T3 construct: stably co-transfected with full-length pCAGGS-gp350/220 and pCI-puro vector; expressed in transfected cells; host or cells: CHO cells
Method: To evaluate conformation epitope mapping of the selected mAbs, competitive binding assays were conducted using biotinylated mAbs. A one-step antibody biotinylation kit (MACS Miltenyi Biotec) was used to biotinylate the mAbs. Approximately 1×10^5 CHO cells that stably expressed EBV gp350 were incubated for 2 hours with serially diluted ([…]) unlabeled competitor mAbs and non-specific anti-KSHV gH/gL 54A1 mAb. After being washed with PBS, the cells were incubated for 2 hours in the presence of 1 μg/ml biotinylated mAbs. To determine maximum binding, cells in which the biotinylated mAb was added in the absence of unlabeled mAbs were included in the assay. Cells were washed with PBS, followed by incubation for 1 hour with anti-biotin AF488 at a dilution of 1:500. After the final wash in PBS, cells were resuspended in 1% paraformaldehyde and analyzed by flow cytometry as described above. Percentage of inhibition was calculated as: 100−[(% fluorescent cells with competitor mAb/% fluorescent cells without competitor mAb)×100]. The complete prevention of binding of a biotinylated mAb by its unlabeled counterpart was used as a validation of the assay, as previously described (84).
At least seven unique CD21 binding epitopes on EBV gp350 have been predicted (Table 3).

T3 sequence (P03200 whole entry): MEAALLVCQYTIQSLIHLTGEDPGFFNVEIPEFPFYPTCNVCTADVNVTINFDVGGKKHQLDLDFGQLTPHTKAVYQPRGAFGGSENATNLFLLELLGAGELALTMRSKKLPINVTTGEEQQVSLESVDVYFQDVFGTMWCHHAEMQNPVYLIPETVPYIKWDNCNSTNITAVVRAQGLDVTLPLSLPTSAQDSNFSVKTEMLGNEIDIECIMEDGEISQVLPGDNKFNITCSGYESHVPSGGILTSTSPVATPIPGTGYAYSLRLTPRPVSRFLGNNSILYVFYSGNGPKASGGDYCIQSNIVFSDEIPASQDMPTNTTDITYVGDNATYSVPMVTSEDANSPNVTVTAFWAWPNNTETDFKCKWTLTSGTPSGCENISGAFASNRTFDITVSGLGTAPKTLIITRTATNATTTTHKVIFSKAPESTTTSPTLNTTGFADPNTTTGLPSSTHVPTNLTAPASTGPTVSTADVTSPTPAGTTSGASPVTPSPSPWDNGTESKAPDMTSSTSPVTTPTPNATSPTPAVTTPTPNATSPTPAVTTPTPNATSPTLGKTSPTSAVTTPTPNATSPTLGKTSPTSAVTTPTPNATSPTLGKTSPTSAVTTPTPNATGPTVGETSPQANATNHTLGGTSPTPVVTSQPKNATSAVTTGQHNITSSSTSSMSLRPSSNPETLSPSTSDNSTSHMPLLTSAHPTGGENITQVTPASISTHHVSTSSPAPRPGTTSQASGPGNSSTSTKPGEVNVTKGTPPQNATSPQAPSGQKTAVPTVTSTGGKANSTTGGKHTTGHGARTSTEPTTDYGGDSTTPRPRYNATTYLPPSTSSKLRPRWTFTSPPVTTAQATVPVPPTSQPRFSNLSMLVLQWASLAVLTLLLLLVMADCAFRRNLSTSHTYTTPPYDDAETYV
T2 sequence (P03200 whole entry): as above
T1 sequence (P03200 4-863): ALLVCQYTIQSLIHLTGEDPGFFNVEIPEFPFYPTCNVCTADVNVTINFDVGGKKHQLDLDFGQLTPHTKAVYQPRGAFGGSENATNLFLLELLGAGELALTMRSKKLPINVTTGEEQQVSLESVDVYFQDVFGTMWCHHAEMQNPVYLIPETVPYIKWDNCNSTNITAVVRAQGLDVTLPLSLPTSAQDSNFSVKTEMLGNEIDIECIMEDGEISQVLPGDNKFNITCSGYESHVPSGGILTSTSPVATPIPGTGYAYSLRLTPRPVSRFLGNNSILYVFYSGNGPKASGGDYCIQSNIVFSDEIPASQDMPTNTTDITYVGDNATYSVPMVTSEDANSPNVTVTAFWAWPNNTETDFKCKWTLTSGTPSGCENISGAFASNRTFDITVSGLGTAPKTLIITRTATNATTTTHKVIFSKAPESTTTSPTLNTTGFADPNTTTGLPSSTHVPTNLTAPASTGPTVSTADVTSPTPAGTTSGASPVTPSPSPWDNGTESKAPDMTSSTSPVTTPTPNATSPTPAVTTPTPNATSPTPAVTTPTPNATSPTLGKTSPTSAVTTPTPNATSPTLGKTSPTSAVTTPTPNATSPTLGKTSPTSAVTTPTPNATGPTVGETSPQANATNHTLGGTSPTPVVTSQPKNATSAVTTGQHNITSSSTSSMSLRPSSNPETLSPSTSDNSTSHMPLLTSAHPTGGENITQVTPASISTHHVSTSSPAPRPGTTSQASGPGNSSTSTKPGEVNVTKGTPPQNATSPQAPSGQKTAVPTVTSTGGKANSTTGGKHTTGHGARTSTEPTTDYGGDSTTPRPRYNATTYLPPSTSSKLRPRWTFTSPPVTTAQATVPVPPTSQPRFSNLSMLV

B1: HB9: murine anti-EBV gp350 mAb, IgG2a κ; SEQ ID NO: 116 / 117 (antibody, V domains shown)
VH: GGLVKPGGSLKLSCAASGFTFSSYTMSWVRQTPEKRLEWVATISSGGSYIYYPDSVKGRFTISRDNAKNTLYLQMSSLKSEDTAIYYCTREDFYYGSSYGFFDVWGAGTTVTVSSAKTTAPSVYPLAPVCGDTTGSSVTLG
VL: LSLPVSLGDQASISCRSSQSIVHSNGNTYLEWYLQKAGQSPKLLIYKVSNRFSGVPDRFGGSGSGTDFTLKISRVEAEDLGVYYCFQGSHVPYTFGGGTKLEIKRADAAPTV
modifications: heavy chain mAb HB9; light chain mAb HB9
- ELISA binding to purified EBV gp350/220 [1]: +
- type of gp350 epitope recognized (linear / conformational) [2]: recognized both linear and conformational epitopes
- neutralization of EBV in Raji cells (in words) [3]: failed to neutralize EBV infection

B2: HB17: murine anti-EBV gp350 mAb, IgG2b κ; SEQ ID NO: 126 / 127; non-nAb (antibody, V domains shown)
VH: AELVIPGASVKVSCKASGYTFTSYWIHWVKQWPGQGLEWIGEINPNNGHTNYNEKFKSKATLTVDKSSSTAYMQLSSLTSEDSAVYYCARNLFYYSRPDYWGQGTSVTVSSAKTTPPSVYPLAPGCGDTTGSSVTLG
VL: SSLSASLGDRVTISCRASQDIGNYLNWYQQKPDGTIKLLIYYTSRLHSGVPSRFSGSGSGTDYSLTISNLEEEDIATYFCQQGNTLPPTFGGGTKLEIKRADAAPTV
modifications: heavy chain mAb HB17; light chain mAb HB17
notes: murine anti-EBV gp350 mAb, IgG2b κ; non-nAb
- ELISA binding to purified EBV gp350/220 [1]: +
- competitive binding versus m72A1 and h72A1 (in words) ([4]; biotinylated antibodies): little to no competitive binding
- type of gp350 epitope recognized (linear / conformational) [2]: recognized both linear and conformational epitopes
- blocking of EBV infection of Raji cells (in words) [3]: Neither HB17, HB22, nor 54A1 blocked EBV infection
- neutralization of EBV in Raji cells (in words) [3]: failed to neutralize EBV infection

B3: HB2: murine anti-EBV gp350 mAb, IgG2a κ; SEQ ID NO: 104 / 105 (antibody, V domains shown)
VH: PELKKPGETVKISCKASGYTFTAYSMHWVKLTPGKGLKWMGWINTKTGEPTYADDFKGRFAFSLETSASTAYLQINNLKNEDTATYFCAPYGYALDYWGQGTSVTVSSAKTTPPSVYPLAPGSAAQTNSMVTLG
VL: AILSASPGEKVTMTCRATSSVNYMHWYQQKPGSSPKPWIYATSNLASGVPARFSGSGSGTSYSLTISRVEAEDAATYYCQQWSSNPPTFGAGTKLELKRADAAPTV
modifications: heavy chain mAb HB2; light chain mAb HB2
- ELISA binding to purified EBV gp350/220 [1]: +
- type of gp350 epitope recognized (linear / conformational) [2]: only recognized conformational epitopes
- neutralization of EBV in Raji cells (in words) [3]: failed to neutralize EBV infection

B4: HB3: murine anti-EBV gp350 mAb, IgG2a κ; SEQ ID NO: 106 / 107 (antibody, V domains shown)
VH: AELVRPGASVKLSCKASGYTFASYWMQWVKQWPGQGLEWIGEINPNNGHTNYNERFKNKASLTVDKSSSTAYMQLSSLTSEDSAVYYCARNLYYYGRPDYWGQGTSVTVSSAKTTAPSVYPLAPVCGDTTGSSVTLG
VL: B2 VL
modifications: heavy chain mAb HB3; light chain mAb HB3
- ELISA binding to purified EBV gp350/220 [1]: +
- type of gp350 epitope recognized (linear / conformational) [2]: only recognized conformational epitopes
- neutralization of EBV in Raji cells (in words) [3]: failed to neutralize EBV infection

B5: HB22: murine anti-EBV gp350 mAb, IgG1 κ; SEQ ID NO: 130 / 131; non-nAb (antibody, V domains shown)
VH: PGLVAPSQSLSITCTVSGFSLTNYGIHWVRQPPGKGLEWLVVIWSDGSTIYNSALKSRLSISKDNSKSQVFLKMNSLQTDDTAMYYCARNYYGNSYPAWFAYWGQGTLVTVSAAKTTPPSVYPLAPGSAAQTNSMVTLG
VL: B1 VL with A37P, G60S, K71R, Y93W
modifications: heavy chain mAb HB22; light chain mAb HB22
notes: murine anti-EBV gp350 mAb, IgG1 κ; non-nAb
- ELISA binding to purified EBV gp350/220 [1]: +
- % inhibition of biotinylated nAbs (biotinylated m72A1) ([4]; unlabeled mAb 67.5 μg/ml): 9%
- % inhibition of biotinylated nAbs (biotinylated m72A1) ([4]; unlabeled mAb 125 μg/ml): 16%
- % inhibition of biotinylated nAbs (biotinylated m72A1) ([4]; unlabeled mAb 250 μg/ml): 3%
- % inhibition of biotinylated nAbs (biotinylated m72A1) ([4]; unlabeled mAb 500 μg/ml): 10%
- blocking of EBV infection of Raji cells (in words) [3]: Neither HB17, HB22, nor 54A1 blocked EBV infection
- neutralization of EBV in Raji cells (in words) [3]: dose-dependent neutralization

— patent US12012446B2, “Epstein-Barr virus antibodies and uses thereof” (priority 2017, dated 2024)
